# In the supplement of paper PMC10598134:
# ± gives the standard deviation.
# Test: collision cross section of modified peptide (TIMS, N2, iRT-aligned); higher = larger / more extended gas-phase ion
# How it was run: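 On a timsTOF Pro/HT (dda-PASEF, nitrogen, ~2.4 mbar), synthetic peptide pools were analysed after a 120-min nanoflow C18 separation at 60 °C and identified in MaxQuant. Three reference ions served for 1/K0 calibration, with run-wise alignment to the median iRT peptide deviation. Collision cross section comes from the Mason-Schamp equation, using the most abundant feature per charge state averaged over 1–3 technical replicates.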
# [1] = charge state: 2, modification: Glutarylation
# [2] = charge state: 3, modification: Citrullination (R)
# [3] = charge state: 2, modification: hydroxyisobutyryl
# [4] = charge state: 3, modification: hydroxyisobutyryl
# [5] = charge state: 2, modification: Formyl
# [6] = charge state: 2, modification: Succinyl
# [7] = charge state: 3, modification: Succinyl
# [8] = charge state: 2, modification: Methyl (K)
# [9] = charge state: 3, modification: Methyl (K)
# [10] = charge state: 2, modification: Butyryl
# [11] = charge state: 3, modification: Butyryl
# [12] = charge state: 2, modification: Citrullination (R)
# [13] = charge state: 3, modification: Glutarylation
# [14] = charge state: 3, modification: Trimethyl (K)
# [15] = charge state: 2, modification: GlyGly (K)
# [16] = charge state: 3, modification: GlyGly (K)
# [17] = charge state: 2, modification: Crotonyl
# [18] = charge state: 2, modification: Dimethyl (K)
# [19] = charge state: 3, modification: Dimethyl (K)
# [20] = charge state: 2, modification: Biotin
# [21] = charge state: 3, modification: Biotin
# [22] = charge state: 3, modification: Crotonyl
# [23] = charge state: 2, modification: Hydroxyproline
# [24] = charge state: 3, modification: Methyl (R)
# [25] = charge state: 2, modification: Trimethyl (K)
substance,measurement,setting,value
ASNAAVKLAESK [_ASNAAVK(Gluratylation)LAESK_],collision cross section,[1],379.86 ± 0.1 Å²
RGATPPAPPRR [_R(Citrullination (R))GATPPAPPRR_],collision cross section,[2],462.57 ± 1.3 Å²
DTPTSAGPNSFNKGK [_DTPTSAGPNSFNK(hydroxyisobutyryl)GK_],collision cross section,[3],416.06 ± 1.1 Å²
same,collision cross section,[4],443.44 ± 3 Å²
ILDLKTGTVK [_ILDLK(Formyl)TGTVK_],collision cross section,[5],351.57 ± 1 Å²
VHATSTYR [_VHATSTY(Phospho (Y))R_],collision cross section,"charge state: 2, modification: Phospho (Y)",330.17 ± 0.75 Å²
same,collision cross section,"charge state: 3, modification: Phospho (Y)",411.28 Å²
ISSNFSSIIAEKLR [_ISSNFSSIIAEK(Succinyl)LR_],collision cross section,[6],432.83 ± 0.84 Å²
same,collision cross section,[7],512.74 Å²
LLFSNTAAQKLR [_LLFSNTAAQK(Methyl (K))LR_],collision cross section,[8],416.21 ± 1.5 Å²
same,collision cross section,[9],479.76 ± 3.4 Å²
IINEPTAAAIAYGLDKK [_IINEPTAAAIAYGLDK(Butyryl)K_],collision cross section,[10],465.29 ± 0.5 Å²
same,collision cross section,[11],559.62 ± 0.45 Å²
GGNFGGRGGYGGGGGGSR [_GGNFGGR(Citrullination (R))GGYGGGGGGSR_],collision cross section,[12],392.17 ± 1 Å²
same,collision cross section,[2],481.82 Å²
VSPASSVDSNIPSSQGYKK [_VSPASSVDSNIPSSQGYK(Gluratylation)K_],collision cross section,[1],466.49 ± 3 Å²
same,collision cross section,[13],552.93 ± 0.14 Å²
ITASLCDLKSR [_ITASLCDLK(Methyl (K))SR_],collision cross section,[8],398.61 Å²
same,collision cross section,[9],456.95 ± 2.7 Å²
GEVGAGAGPGAQAGPSAKR [_GEVGAGAGPGAQAGPSAK(Trimethyl (K))R_],collision cross section,[14],489.76 ± 5.2 Å²
TFGKAAGPSLSHTSGGTQSK [_TFGK(Butyryl)AAGPSLSHTSGGTQSK_],collision cross section,[10],496.92 ± 1.5 Å²
same,collision cross section,[11],514.77 ± 3.5 Å²
SGKFTQQDIDEAK [_SGK(Formyl)FTQQDIDEAK_],collision cross section,[5],408.45 ± 0.19 Å²
PANEKATDDYHYEK [_PANEK(GlyGly (K))ATDDYHYEK_],collision cross section,[15],439.63 ± 1.2 Å²
same,collision cross section,[16],506.82 ± 0.35 Å²
DVNAAIAAIKTK [_DVNAAIAAIK(hydroxyisobutyryl)TK_],collision cross section,[3],392.68 ± 15 Å²
same,collision cross section,[4],466.43 ± 5.5 Å²
DHLSDKESK [_DHLSDK(Crotonyl)ESK_],collision cross section,[17],361.16 ± 11 Å²
SPPLPEHQKIPCNSAEPK [_SPPLPEHQK(Gluratylation)IPCNSAEPK_],collision cross section,[13],541.53 Å²
VLDSGAPIKIPVGPETLGR [_VLDSGAPIK(Gluratylation)IPVGPETLGR_],collision cross section,[1],465.83 ± 1.5 Å²
same,collision cross section,[13],505.05 ± 1 Å²
DTPTSAGPNSFNKGK [_DTPTSAGPNSFNK(Dimethyl (K))GK_],collision cross section,[18],406.79 ± 1.1 Å²
same,collision cross section,[19],455.12 ± 1.6 Å²
VGTASVLQPVKK [_VGTASVLQPVK(Dimethyl (K))K_],collision cross section,[18],391.72 ± 3 Å²
same,collision cross section,[19],440.56 ± 1.6 Å²
PGGEGPQCEKTTDVK [_PGGEGPQCEK(GlyGly (K))TTDVK_],collision cross section,[15],422.06 ± 1.9 Å²
same,collision cross section,[16],492.2 ± 3 Å²
FDDTNPEKEEAK [_FDDTNPEK(Biotin)EEAK_],collision cross section,[20],416.55 ± 1.6 Å²
same,collision cross section,[21],504.96 ± 0.34 Å²
DESFLGKLGGTLAR [_DESFLGK(Dimethyl (K))LGGTLAR_],collision cross section,[18],418.8 ± 0.75 Å²
same,collision cross section,[19],466.85 ± 1.2 Å²
LAEEENKAK [_LAEEENK(Methyl (K))AK_],collision cross section,[8],347.67 ± 0.66 Å²
same,collision cross section,[9],422.11 Å²
DTPTSAGPNSFNKGK [_DTPTSAGPNSFNK(Crotonyl)GK_],collision cross section,[17],412.68 ± 0.55 Å²
same,collision cross section,[22],462.19 Å²
SDDESSQKDIK [_SDDESSQK(Formyl)DIK_],collision cross section,[5],368.14 ± 1.1 Å²
LQLEIDQKK [_LQLEIDQK(Butyryl)K_],collision cross section,[10],370.32 ± 1.2 Å²
ASAISIKLGSSK [_ASAISIK(Crotonyl)LGSSK_],collision cross section,[17],374.63 ± 0.89 Å²
GGGFGAHGRGR [_GGGFGAHGR(Citrullination (R))GR_],collision cross section,[12],343.86 ± 0.28 Å²
same,collision cross section,[2],412.59 ± 0.45 Å²
VFSIISSEKELK [_VFSIISSEK(Formyl)ELK_],collision cross section,[5],402.55 ± 0.42 Å²
GTISAPGKVVTAAAQAK [_GTISAPGK(Methyl (K))VVTAAAQAK_],collision cross section,[8],466.62 ± 2.3 Å²
same,collision cross section,[9],495.95 ± 2.3 Å²
SLEEEGAAHSGKR [_SLEEEGAAHSGK(Butyryl)R_],collision cross section,[10],418.69 ± 0.77 Å²
same,collision cross section,[11],478.81 ± 1.8 Å²
LEEVTGKLQVAR [_LEEVTGK(Methyl (K))LQVAR_],collision cross section,[8],393.19 ± 1.7 Å²
same,collision cross section,[9],474.94 ± 3.5 Å²
VDVEVPDVSLEGPEGKLK [_VDVEVPDVSLEGPEGK(Crotonyl)LK_],collision cross section,[17],469.01 ± 1.1 Å²
IGNSYFKEEK [_IGNSYFK(Biotin)EEK_],collision cross section,[20],398.98 Å²
GETASKLQSEISR [_GETASK(Succinyl)LQSEISR_],collision cross section,[6],399.77 ± 2 Å²
GEQGEPGAPGIR [_GEQGEP(Hydroxyproline)GAPGIR_],collision cross section,[23],349.07 ± 0.25 Å²
PGLQGPR [_P(Hydroxyproline)GLQGPR_],collision cross section,[23],288.12 ± 3.8 Å²
TLDEILQEKK [_TLDEILQEK(Gluratylation)K_],collision cross section,[1],387.75 ± 3.2 Å²
same,collision cross section,[13],452.89 ± 2.4 Å²
LQAAYAGDKADDIQK [_LQAAYAGDK(GlyGly (K))ADDIQK_],collision cross section,[15],455.93 ± 1.6 Å²
same,collision cross section,[16],505.34 ± 0.35 Å²
GRGGPGPAQR [_GR(Citrullination (R))GGPGPAQR_],collision cross section,[12],319.56 ± 0.91 Å²
AAHGRGALAEAAR [_AAHGR(Methyl (R))GALAEAAR_],collision cross section,"charge state: 2, modification: Methyl (R)",401.51 ± 8.3 Å²
same,collision cross section,[24],469.45 ± 1.5 Å²
GATVTRGVPPPPTVR [_GATVTR(Citrullination (R))GVPPPPTVR_],collision cross section,[12],398.42 ± 2.1 Å²
same,collision cross section,[2],501.66 Å²
IGNSYFKEEK [_IGNSYFK(Trimethyl (K))EEK_],collision cross section,[25],378.87 ± 0.63 Å²
same,collision cross section,[14],441.97 ± 1.8 Å²
DASTLQSQKAEGTGDAK [_DASTLQSQK(Formyl)AEGTGDAK_],collision cross section,[5],431.62 ± 0.17 Å²
same,collision cross section,"charge state: 3, modification: Formyl",503.35 ± 3 Å²
SGNLTEDDKHNNAK [_SGNLTEDDK(Trimethyl (K))HNNAK_],collision cross section,[25],419.32 ± 0.75 Å²
same,collision cross section,[14],469.66 ± 1.5 Å²
ISALQGKLSK [_ISALQGK(Propionyl)LSK_],collision cross section,"charge state: 2, modification: Propionyl",357.21 ± 0.33 Å²
LGVATVAKGVCGACK [_LGVATVAK(GlyGly (K))GVCGACK_],collision cross section,[15],453.34 ± 1.4 Å²
same,collision cross section,[16],497.41 ± 0.34 Å²
VSPASSVDSNIPSSQGYKK [_VSPASSVDSNIPSSQGYK(Succinyl)K_],collision cross section,[6],467.79 ± 1.1 Å²
same,collision cross section,[7],548.84 ± 1.1 Å²
DSSPTTNSKLSALQR [_DSSPTTNSK(Biotin)LSALQR_],collision cross section,[20],447.16 ± 2.3 Å²
same,collision cross section,[21],519.36 ± 0.34 Å²
VLTANSNPSSPSAAKR [_VLTANSNPSSPSAAK(Methyl (K))R_],collision cross section,[8],432.87 ± 1.5 Å²
same,collision cross section,[9],521.25 ± 1.8 Å²
GRGAANDSTQFTVAGR [_GR(Methyl (R))GAANDSTQFTVAGR_],collision cross section,[24],468.2 ± 2.7 Å²
LEQVEKELLR [_LEQVEK(Methyl (K))ELLR_],collision cross section,[8],386.67 ± 0.96 Å²
same,collision cross section,[9],448.53 ± 4.9 Å²
DTGEKLTVAENEAETK [_DTGEK(GlyGly (K))LTVAENEAETK_],collision cross section,[15],443.91 ± 1.6 Å²
same,collision cross section,[16],490.28 ± 1.9 Å²
TQAYQDQKPGTSGLR [_TQAYQDQK(Methyl (K))PGTSGLR_],collision cross section,[8],422.44 Å²
same,collision cross section,[9],472.98 ± 2.7 Å²
TTEETSKPK [_TTEETSK(Crotonyl)PK_],collision cross section,[17],346.33 ± 11 Å²
ALASIDSKLNQAK [_ALASIDSK(Formyl)LNQAK_],collision cross section,[5],395.38 ± 0.55 Å²
TLHLSHLNRFPAR [_TLHLSHLNR(Methyl (R))FPAR_],collision cross section,[24],503.65 Å²
ISSNFSSIIAEKLR [_ISSNFSSIIAEK(Methyl (K))LR_],collision cross section,[8],438.59 ± 1.7 Å²
same,collision cross section,[9],507.3 ± 3.6 Å²
VNALKNLQVK [_VNALK(Trimethyl (K))NLQVK_],collision cross section,[25],379.91 ± 0.019 Å²
same,collision cross section,[14],418.46 ± 2.4 Å²
SLEEEGAAHSGKR [_SLEEEGAAHSGK(Methyl (K))R_],collision cross section,[8],413.71 ± 2.6 Å²
same,collision cross section,[9],459.06 ± 3.1 Å²
SEASSEFAKK [_SEASSEFAK(hydroxyisobutyryl)K_],collision cross section,[3],356.42 ± 0.78 Å²
DDSFLGKLGGTLAR [_DDSFLGK(Crotonyl)LGGTLAR_],collision cross section,[17],415.37 ± 0.28 Å²
same,collision cross section,[22],492.69 Å²
LDEKENLSAK [_LDEK(Gluratylation)ENLSAK_],collision cross section,[1],373.82 ± 0.62 Å²
